Source: article PMC9859039, “The conserved centrosomin motif, γTuNA, forms a dimer that directly activates microtubule nucleation by the γ-tubulin ring complex (γTuRC)” (eLife, 2022)
No end group written: not given here. 3C = human rhinovirus 3C (PreScission) protease cleavage site; TEV = tobacco etch virus protease cleavage site; Strep‑His = not defined here

Key:
[1] = molecular target: γ-tubulin ring complex (γTuRC), endogenous Xenopus laevis, P23330;Q5U4M5; assay: pull-down from Xenopus egg extract, western blot quantification; conditions: control (beads) bar est. 0.19, read off a plot; for ratio to parent: parent: est. 1.0; for response: scale: normalized band intensity
[2] = molecular target: γ-tubulin ring complex (γTuRC), endogenous Xenopus laevis (Xenopus laevis (endogenous in egg extract)) (UniProt P23330)
[3] = molecular target: γ-tubulin ring complex (γTuRC), endogenous Xenopus laevis (Xenopus laevis (endogenous in egg extract)) (UniProt P23330); remark: listed apart in the source
[4] = molecular target: Strep-His-TEV-HaloTag-3C-Xenopus γTuNA (Xenopus Cdk5rap2 aa 56–101), wildtype (Xenopus laevis); assay: pull-down; depletion of Xenopus egg extract with Strep-His-Halo-Xenopus γTuNA-coupled beads, a single round; γ-tubulin left in the extract by western blot against mock-treated extract
[5] = molecular target: Strep-His-TEV-HaloTag-3C-Xenopus γTuNA I67A (Xenopus laevis); assay: pull-down; Halo-Magne beads coupled to N-terminally Halo-tagged γTuNA baits; 200 µL Xenopus egg extract + 800 µL CSFxB (2% sucrose), 2 hr at 4 °C, washed twice, boiled in SDS sample buffer; western blot of GCP5 and γ-tubulin, band intensities normalised to the wildtype bait
[6] = molecular target: Strep-His-TEV-HaloTag-3C-Xenopus γTuNA L70A (Xenopus laevis); assay: as above
[7] = molecular target: AU1-human γTuNA (from Strep-His-Halo-3C-AU1-human γTuNA after PreScission cleavage) (human); assay: co-sedimentation; γTuRC pulled from egg extract on Halo-3C-AU1-human γTuNA beads, eluted by 3C cleavage, 10–50% w/w sucrose gradient (200,000 g, 2 °C, 3 hr); AU1 in the peak γTuRC fraction by western blot against a titration of AU1
[8] = molecular target: the molecule itself; assay: SEC; Superdex 200 increase 10/300 GL, ~50 µM (monomer), CSFxB with 6 mM BME without sucrose, 4 °C, 0.7 mL/min; peak retention volumes compared

γ-tubulin ring complex (γTuRC), endogenous Xenopus laevis (Xenopus laevis (endogenous in egg extract)), sequence (P23330 whole entry, looked up, the tested form may be a part, one chain of several): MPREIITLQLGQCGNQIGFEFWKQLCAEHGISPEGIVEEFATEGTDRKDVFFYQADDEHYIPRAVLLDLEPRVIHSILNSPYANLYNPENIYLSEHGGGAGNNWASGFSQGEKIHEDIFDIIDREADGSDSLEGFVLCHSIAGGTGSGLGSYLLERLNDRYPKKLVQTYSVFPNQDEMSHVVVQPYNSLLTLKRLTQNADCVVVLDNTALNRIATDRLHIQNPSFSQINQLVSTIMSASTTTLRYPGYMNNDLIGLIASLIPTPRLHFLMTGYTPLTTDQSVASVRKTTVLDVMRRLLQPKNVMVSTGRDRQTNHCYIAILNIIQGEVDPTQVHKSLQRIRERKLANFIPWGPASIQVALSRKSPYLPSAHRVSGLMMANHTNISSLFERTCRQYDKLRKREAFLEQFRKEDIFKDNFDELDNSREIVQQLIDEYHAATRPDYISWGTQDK

**Q.** Which ratio to parent ([1]; N=2) does the source give for “Strep-His-TEV-HaloTag-3C-Xenopus γTuNA (Xenopus Cdk5rap2 aa 56–101), wildtype F63A” here?
**A.** 0.66

**Q.** How did the ratio to parent ([1]; N=2) turn out when “Strep-His-TEV-HaloTag-3C-Xenopus γTuNA (Xenopus Cdk5rap2 aa 56–101), wildtype F75A” was run?
**A.** 0.08

**Q.** And the response ([1]; N=3, parent: est. 1.06)?
**A.** 0.02

**Q.** With “Strep-His-TEV-HaloTag-3C-Xenopus γTuNA (Xenopus Cdk5rap2 aa 56–101), wildtype I67D; L70D” as the molecule, how does the response ([1]; N=3, parent: est. 1.06) read?
**A.** 0.01

**Q.** How did the ratio to parent ([1]; N=2) turn out when “Strep-His-TEV-HaloTag-3C-Xenopus γTuNA (Xenopus Cdk5rap2 aa 56–101), wildtype L77A” was run?
**A.** 0.05

**Q.** “Strep-His-TEV-HaloTag-3C-human γTuNA (human CDK5RAP2 aa 53–98), wildtype I67A; L70A” was tested. Which response ([1]; N=2, human wildtype not shown in this panel) did it give?
**A.** 0.16

**Q.** For “Strep-His-TEV-HaloTag-3C-human γTuNA (human CDK5RAP2 aa 53–98), wildtype I67D; L70D”, which ratio to parent ([1]; N=3) is on record?
**A.** 0.1

**Q.** With “Strep-His-TEV-HaloTag-3C-human γTuNA (human CDK5RAP2 aa 53–98), wildtype I67D; L70D; L77D” as the molecule, how does the ratio to parent ([1]; N=3) read?
**A.** 0.07

**Q.** For “Strep-His-Xenopus γTuNA I67A (domain or fragment)”, which MT number (EB1 spots) in egg extract with 2 µM γTuNA, relative to wildtype γTuNA (% of wildtype) [2] is on record?
**A.** 50

**Q.** With “Strep-His-Xenopus γTuNA L70A (domain or fragment)” as the molecule, how does the MT number (EB1 spots) in egg extract with 2 µM γTuNA, relative to wildtype γTuNA (% of wildtype) [2] read?
**A.** 6

**Q.** Which MT number (EB1 spots) in Xenopus egg extract by TIRF, titration of γTuNA up to 3.6 µM, fold over buffer [3] does the source give for “Strep-His-Xenopus γTuNA, wildtype (domain or fragment)” here?
**A.** 75 fold

**Q.** With “γ-tubulin ring complex (γTuRC), endogenous Xenopus laevis (from UniProt P23330 1-451; Q5U4M5 1-72)” as the molecule, how does the percent of γ-tubulin signal lost from the extract after one depletion [4] read?
**A.** > 75%

**Q.** What about the γTuRC pulled down, percent of wildtype [5] of the same molecule?
**A.** 67%

**Q.** And the γTuRC pulled down, percent of wildtype [6]?
**A.** 35%

**Q.** And the percent of purified γTuRCs that retain a γTuNA dimer [7]?
**A.** 33%

B1: Strep-His-TEV-HaloTag-3C-Xenopus γTuNA (Xenopus Cdk5rap2 aa 56–101), wildtype (domain or fragment, Xenopus laevis)
chain: {Strep‑His-TEV-HaloTag-3C}-MKDFEKQIAELKKENFNLKLRIYFLEEQVQQKCDNSSEDLYRMNIE
modifications: reading uncertain
notes: γTuNA (CM1) domain of Xenopus laevis Cdk5rap2 isoform X1 (905 aa), aa 56–101; TEV and PreScission (3C) cleavage sites lie between the tags and γTuNA; also called Halo-Xenopus γTuNA; Strep-His-Halo-Xenopus γTuNA; source: E. coli Rosetta 2 (DE3), purified (Strep-Tactin); not shown: StrepTagII, N-terminal, kept; 6xHis, N-terminal, kept; HaloTag, N-terminal, kept
**Q.** For B1, which “stoichiometry N” value [8] is on record?
**A.** 2

B2: Strep-His-TEV-HaloTag-3C-Xenopus γTuNA F75A (Xenopus F71A) (domain or fragment, Xenopus laevis)
chain: {Strep‑His-TEV-HaloTag-3C}-MKDFEKQIAELKKENANLKLRIYFLEEQVQQKCDNSSEDLYRMNIE
modifications: reading uncertain
notes: γTuNA of Xenopus laevis Cdk5rap2 isoform X1, aa 56–101; it is F71 in Xenopus; also called Halo-Xenopus γTuNA F75A; Xenopus F75A mutant; source: E. coli Rosetta 2 (DE3), purified (Strep-Tactin); not shown: StrepTagII, N-terminal, kept; 6xHis, N-terminal, kept; HaloTag, N-terminal, kept
**Q.** Does B2 bind [8]?
**A.** binds

B3: Strep-His-TEV-HaloTag-3C-human γTuNA (human CDK5RAP2 aa 53–98), wildtype (domain or fragment)
chain: {Strep‑His-TEV-HaloTag-3C}-SPTRARNMKDFENQITELKKENFNLKLRIYFLEERMQQEFHGPTEH
modifications: reading uncertain
notes: γTuNA (CM1) domain of human CDK5RAP2 isoform A (1893 aa), aa 53–98; TEV and PreScission (3C) cleavage sites lie between the tags and γTuNA; also called Halo-human γTuNA; human wildtype Halo-γTuNA; source: E. coli Rosetta 2 (DE3), purified (Strep-Tactin); not shown: StrepTagII, N-terminal, kept; 6xHis, N-terminal, kept; HaloTag, N-terminal, kept
**Q.** Which “stoichiometry N” value [8] does the source give for B3 here?
**A.** 2
